{"source": "patent US12247238B2", "about": "“Mogroside biocatalysis methods and products” (The Coca-Cola Company, priority 2019, dated 2025)", "molecules": {"B1": {"name": "D258E: A. oryzae β-galactosidase variant, D258E (protein, UniProt Q2UCU3 19-1005, looked up, variant D258E)", "Beta-galactosidase A": "ASIKHRLNGFTILEHPDPAKRDLLQDIVTWDDKSLFINGERIMLFSGEVHPFRLPVPSLWLDIFHKIRALGFNCVSFYIDWALLEGKPGDYRAEGIFALEPFFDAAKEAGIYLIARPGSYINAEVSGGGFPGWLQRVNGTLRSSDEPFLKATDNYIANAAAAVAKAQITNGGPVILYQPENEYSGGCCGVKYPDADYMQYVMDQARKADIVVPFISNDASPSGHNAPGSGTGAVDIYGHESYPLGFDCANPSVWPEGKLPDNFRTLHLEQSPSTPYSLLEFQAGAFDPWGGPGFEKCYALVNHEFSRVFYRNDLSFGVSTFNLYMTFGGTNWGNLGHPGGYTSYDYGSPITETRNVTREKYSDIKLLANFVKASPSYLTATPRNLTTGVYTDTSDLAVTPLIGDSPGSFFVVRHTDYSSQESTSYKLKLPTSAGNLTIPQLEGTLSLNGRDSKIHVVDYNVSGTNIIYSTAEVFTWKKFDGNKVLVLYGGPKEHHELAIASKSNVTIIEGSDSGIVSTRKGSSVIIGWDVSSTRRIVQVGDLRVFLLDRNSAYNYWVPELPTEGTSPGFSTSKTTASSIIVKAGYLLRGAHLDGADLHLTADFNATTPIEVIGAPTGAKNLFVNGEKASHTVDKNGIWSSEVKYAAPEIKLPGLKDLDWKYLDTLPEIKSSYDDSAWVSADLPKTKNTHRPLDTPTSLYSSDYGFHTGYLIYRGHFVANGKESEFFIRTQGGSAFGSSVWLNETYLGSWTGADYAMDGNSTYKLSQLESGKNYVITVVIDNLGLDENWTVGEETMKNPRGILSYKLSGQDASAITWKLTGNLGGEDYQDKVRGPLNEGGLYAERQGFHQPQPPSESWESGSPLEGLSKPGIGFYTAQFDLDLPKGWDVPLYFNFGNNTQAARAQLYVNGYQYGKFTGNVGPQTSFPVPEGILNYRGTNYVALSLWALESDGAKLGSFELSYTTPVLTGYGNVESPEQPKYEQRKGAY"}, "B2": {"name": "S3 RRK 7: RRK loop library variant, positions 204/205/208: DSE (protein, UniProt Q2UCU3 19-1005, looked up, variant G204D C205S V208E)", "Beta-galactosidase A": "B1 Beta-galactosidase A with G186D, C187S, V190E, E240D"}, "B3": {"name": "S1 RRK 14: RRK loop library variant, positions 204/205/208: NNE (protein, UniProt Q2UCU3 19-1005, looked up, variant G204N C205N V208E)", "Beta-galactosidase A": "B1 Beta-galactosidase A with G186N, C187N, V190E, E240D"}, "B4": {"name": "S2 RRK 2: RRK loop library variant, positions 204/205/208: GDG (protein, UniProt Q2UCU3 19-1005, looked up, variant C205D V208G)", "Beta-galactosidase A": "B1 Beta-galactosidase A with C187D, V190G, E240D"}, "B5": {"name": "S2 RRK 13: RRK loop library variant, positions 204/205/208: EES (protein, UniProt Q2UCU3 19-1005, looked up, variant G204E C205E V208S)", "Beta-galactosidase A": "B1 Beta-galactosidase A with G186E, C187E, V190S, E240D"}, "B6": {"name": "S3 RRK 5: RRK loop library variant, positions 204/205/208: ESG (protein, UniProt Q2UCU3 19-1005, looked up, variant G204E C205S V208G)", "Beta-galactosidase A": "B1 Beta-galactosidase A with G186E, C187S, V190G, E240D"}, "B7": {"name": "E142A RRK77: β-galactosidase variant, RRK substitutions ENR with E142A (protein, UniProt Q2UCU3 19-1005, looked up, variant E142A G204E C205N V208R)", "Beta-galactosidase A": "B1 Beta-galactosidase A with E124A, G186E, C187N, V190R, E240D"}, "B8": {"name": "S2 RRK 12: RRK loop library clone, positions 204/205/208: GCV (wildtype) (protein, UniProt Q2UCU3 19-1005, looked up)", "Beta-galactosidase A": "B1 Beta-galactosidase A with E240D"}, "B9": {"name": "S2 RRK 16: RRK loop library variant, positions 204/205/208: NGR (protein, UniProt Q2UCU3 19-1005, looked up, variant G204N C205G V208R)", "Beta-galactosidase A": "B1 Beta-galactosidase A with G186N, C187G, V190R, E240D"}}, "format_in_all_cases": "biochemical", "key": {"[1]": {"experiment": "Example 8 standard mogroside biocatalytic assay, Sia I as substrate", "conditions": "37° C., pH 5.6", "description": "(§1) Standard mogroside biocatalytic assays were performed at 37° C. in 500 μL volume 50 mM sodium citrate buffer pH 5.6, 10 mM magnesium chloride, 10 mM substrate (typically mogroside V or Siamenoside I) and 50 μg mL−1 enzyme, and incubated for 24-96 hours. Mogroside glucosidation activity was detected by direct HPLC detection and quantification of mogroside V substrate and mogroside products from filtered reaction supernatant, and quantified by comparison with standard curves based on peak area (see Analytical Methods).\n(§2) Analytical Method: Mogroside compounds HPLC separation and quantification was conducted using a Synergi Hydro-RP column (250 mm×4.6 mm or 150 mm×4.6 mm) with an initial flow rate of 1 mL min−1 and a water: acetonitrile gradient as per below, similar to that described by Zhou et al. (WO 2014/150127). Compounds were detected at 210 nm using diode array detector (Agilent Technologies, USA), and calibration curves established using standard curves from 0.1 to 10 mM. 150 mm column retention times in minutes: mog V 9.5, sia 1 10.6, mog IVa 10.5, mog IV 11.3, mog III 12.6, mogl I 13.2. 250 mm column retention times: mog V 12.3, sia 1 13.2, mog IVa 13.5, mog IV 14.1, mog III 15.3, mog II 16.2."}, "[2]": {"experiment": "Standard mogroside biocatalytic assay, mogroside V substrate", "description": "as §1, with “μL,” for “μL”, “V)” for “V or Siamenoside I)”, “peak.” for “peak area (see Analytical Methods).”\nMogroside compounds HPLC separation and quantification was conducted using a Synergi Hydro-RP column (250 mm×4.6 mm or 150 mm×4.6 mm) with an initial flow rate of 1 mL min−1 and a water: acetonitrile gradient as per below, similar to that described by Zhou et al. (WO 2014/150127). Compounds were detected at 210 nm using diode array detector (Agilent Technologies, USA), and calibration curves established using standard curves from 0.1 to 10 mM.\n(§3) Cells expressing enzyme variants grown in buffered minimal medium were induced for 72 hr with 1% methanol (refreshed every 24 hr), the culture supernatant harvested and assayed for standard ONPG activity over 30 minutes and mogroside V activity at pH 5.6, 37° C. for 72 hrs. The resultant activity data (Table 2) identified E200 and D258 as the likely catalytic pair for acid/base and nucleophilic attack of mogroside V by the A. oryzae β-glucosidase enzyme."}, "[3]": {"experiment": "Example 8 standard mogroside biocatalytic assay, Mog V as substrate", "conditions": "37° C., pH 5.6; for % Siamenoside I: 72 hr", "description": "as §1, §2"}, "[4]": {"experiment": "β-galactosidase ONPG activity assay", "conditions": "oNPG substrate, over 30 minutes", "description": "Standard β-galactosidase assays were performed at room temperature using o-nitrophenyl-β-D-galactopyranoside (ONPG, Sigma) as a substrate in […] with detection of o-nitrophenol release at 420 nm (UV-Spectra Max Spectrophotometer, Molecular Devices, USA). A typical reaction contained 50 mM sodium citrate buffer pH 5.6, 10 mM magnesium chloride and 100 mM potassium chloride with 2 mM ONPG and the desired amount of enzyme (usually […]). Partially purified AoBG (Sigma G5160, USA) was used as a positive control at a final concentration of 1 U mL−1. Vmax was calculated using the SpectraMax Plus software (Molecular Devices, USA) and when required kinetics were determined by varying the concentration of substrate and kinetic determinants calculated using Hyper™ (J. S. Easterby, Liverpool University).\nas §3"}, "[5]": {"experiment": "Example 8 standard mogroside biocatalytic assay, Mog V as substrate", "conditions": "37° C., pH 5.6"}, "[6]": {"experiment": "RRK loop library variant screening, mogroside V substrate", "conditions": "second pass evaluation, 10 mM mogroside V, pH 5.6, 37° C., 72 hours", "description": "(§4) Single transformant colonies from 3.2.2 were inoculated into 2mL BMGY in 48 well-growth blocks and grown overnight at 30° C., 1000 rpm in a benchtop incubator before dilution of cell culture from each well into 2 mL BMM medium an equivalent well in a fresh growth block, to an OD600 nm of 1.0, and growing the induction growth blocks at 30° C., 1000 rpm in a benchtop incubator for 72 hours. The cells were then harvested (5000 g, 10 minutes) and the supernatant from each well concentrated using a 30 kDa cut-off Amicon Ultra 0.5 mL concentrator column (10 000 g, 5 minutes). Enzymatic assays were setup in fresh growth blocks to a total volume of 500 μL, comprising with 50 mM sodium citrate buffer pH 5.6, 10 mM magnesium chloride, 10 mM mogroside V and 50 μL concentrated supernatant (˜35 μg mL−1 protein). Assays were incubated without shaking at 37° C. for 72 hours. 190 μL of reaction was combined with 10 μL 10 mM internal standard (N-Boc-) and 5 μL analyzed by HPLC.\nas §2, with “Mogroside” for “Analytical Method: Mogroside”\nTherefore, variants showing improved function were chosen if they surpassed a yield value >70% by peak area during this first pass evolution.\n(§5) 48 variants were selected based on Siamenoside I yields of >70% by peak area for a second pass evaluation. The cell lines were regrown and assayed with both mogroside V and Siamenoside I as substrates, independently."}, "[7]": {"experiment": "RRK loop library variant second pass evaluation, Siamenoside I substrate", "conditions": "Siamenoside I as substrate", "description": "as §4\nas §2, with “Mogroside” for “Analytical Method: Mogroside”\nas §5"}, "[8]": {"conditions": "Mogroside hydrolysis, 72 h, 37 C., pH 5.6"}, "[9]": {"conditions": "product ratio, 72 h, 37 C., pH 5.6"}}, "note": "Substitutions are numbered along the chain they refer to. Numbers in names are those of the source. Entries after “also recorded” stand apart in the source; their conditions may differ.", "data": [{"molecule": "B1", "values": [{"measurement": "Km", "setting": "[1]", "value": "3310 ± 800", "unit": "µM"}, {"measurement": "kcat", "setting": "[1]", "value": "36.8 ± 3.1", "unit": "s⁻¹"}, {"measurement": "rate of mogroside hydrolysis (in words)", "setting": "[2]", "value": "increased initial rate of mogroside hydrolysis; also recorded: increased rate of mogroside V hydrolysis"}, {"measurement": "Initial Rate", "setting": "[2]; Mogroside hydrolysis, 37 C., pH 5.6", "value": 2.70, "unit": "µmol/min/mg"}, {"measurement": "Reaction Progress", "setting": "[2]; [8]", "value": 99, "unit": "%"}, {"measurement": "Sia 1", "setting": "[2]; [8]", "value": 55, "unit": "%"}, {"measurement": "Sia:MogIII", "setting": "[2]; [9]", "value": 2.8}, {"measurement": "Sia:MogIV", "setting": "[2]; [9]", "value": 2.1}, {"measurement": "Reaction progress (% conversion)", "setting": "[3]", "value": 99, "unit": "%"}, {"measurement": "% Siamenoside I", "setting": "[3]", "value": 55, "unit": "%"}, {"measurement": "oNPG", "setting": "[4]", "value": "41.4 ± 0.9", "unit": "mAu/min/mg"}, {"measurement": "Km", "setting": "[5]", "value": "2500 ± 200", "unit": "µM"}, {"measurement": "kcat", "setting": "[5]", "value": "966 ± 26", "unit": "s⁻¹"}]}, {"molecule": "B2", "values": [{"measurement": "% Peak Area Siamenoside I", "setting": "[6]", "value": 72, "unit": "% Peak Area"}, {"measurement": "Reaction Progress", "setting": "[6]", "value": 85}, {"measurement": "Siamenoside I Substrate Evaluation % Peak Area Siamenoside I Left After 72 hr", "setting": "[7]", "value": 73, "unit": "% Peak Area"}]}, {"molecule": "B3", "values": [{"measurement": "% Peak Area Siamenoside I", "setting": "[6]", "value": 74, "unit": "% Peak Area"}, {"measurement": "Reaction Progress", "setting": "[6]", "value": 75}, {"measurement": "Siamenoside I Substrate Evaluation % Peak Area Siamenoside I Left After 72 hr", "setting": "[7]", "value": 84, "unit": "% Peak Area"}]}, {"molecule": "B4", "values": [{"measurement": "% Peak Area Siamenoside I", "setting": "[6]", "value": 76, "unit": "% Peak Area"}, {"measurement": "Reaction Progress", "setting": "[6]", "value": 87}, {"measurement": "Siamenoside I Substrate Evaluation % Peak Area Siamenoside I Left After 72 hr", "setting": "[7]", "value": 78, "unit": "% Peak Area"}]}, {"molecule": "B5", "values": [{"measurement": "% Peak Area Siamenoside I", "setting": "[6]", "value": 72, "unit": "% Peak Area"}, {"measurement": "Reaction Progress", "setting": "[6]", "value": 88}, {"measurement": "Siamenoside I Substrate Evaluation % Peak Area Siamenoside I Left After 72 hr", "setting": "[7]", "value": 73, "unit": "% Peak Area"}]}, {"molecule": "B6", "values": [{"measurement": "% Peak Area Siamenoside I", "setting": "[6]", "value": 73, "unit": "% Peak Area"}, {"measurement": "Reaction Progress", "setting": "[6]", "value": 87}, {"measurement": "Siamenoside I Substrate Evaluation % Peak Area Siamenoside I Left After 72 hr", "setting": "[7]", "value": 69, "unit": "% Peak Area"}]}, {"molecule": "B7", "values": [{"measurement": "Reaction progress (% conversion)", "setting": "[3]", "value": 89, "unit": "%"}, {"measurement": "% Siamenoside I", "setting": "[3]", "value": "76 ± 3.1", "unit": "%"}]}, {"molecule": "B8", "values": [{"measurement": "% Peak Area Siamenoside I", "setting": "[6]", "value": 66, "unit": "% Peak Area"}, {"measurement": "Reaction Progress", "setting": "[6]", "value": 89}, {"measurement": "Siamenoside I Substrate Evaluation % Peak Area Siamenoside I Left After 72 hr", "setting": "[7]", "value": 35, "unit": "% Peak Area"}]}, {"molecule": "B9", "values": [{"measurement": "% Peak Area Siamenoside I", "setting": "[6]", "value": 72, "unit": "% Peak Area"}, {"measurement": "Reaction Progress", "setting": "[6]", "value": 87}, {"measurement": "Siamenoside I Substrate Evaluation % Peak Area Siamenoside I Left After 72 hr", "setting": "[7]", "value": 72, "unit": "% Peak Area"}]}]}
